From article PMC4157578 (Molecular Cell, 2014)

B1: Mcm2 (subunit of the MCM complex) (natural protein)
chain: MSDNRRRRREEDDSDSENELPPSSPQQHFRGGMNPVSSPIGSPDMINPEGDDNEVDDVPDIDEVEEQMNEVDLMDDNMYEDYAADHNRDRYDPDQVDDREQQELSLSERRRIDAQLNERDRLLRNVAYIDDEDEEQEGAAQLDEMGLPVQRRRRRRQYEDLENSDDDLLSDMDIDPLREELTLESLSNVKANSYSEWITQPNVSRTIARELKSFLLEYTDETGRSVYGARIRTLGEMNSESLEVNYRHLAESKAILALFLAKCPEEMLKIFDLVAMEATELHYPDYARIHSEIHVRISDFPTIYSLRELRESNLSSLVRVTGVVTRRTGVFPQLKYVKFNCLKCGSILGPFFQDSNEEIRISFCTNCKSKGPFRVNGEKTVYRNYQRVTLQEAPGTVPPGRLPRHREVILLADLVDVSKPGEEVEVTGIYKNNYDGNLNAKNGFPVFATIIEANSIKRREGNTANEGEEGLDVFSWTEEEEREFRKISRDRGIIDKIISSMAPSIYGHRDIKTAVACSLFGGVPKNVNGKHSIRGDINVLLLGDPGTAKSQILKYVEKTAHRAVFATGQGASAVGLTASVRKDPITKEWTLEGGALVLADKGVCLIDEFDKMNDQDRTSIHEAMEQQSISISKAGIVTTLQARCSIIAAANPNGGRYNSTLPLAQNVSLTEPILSRFDILCVVRDLVDEEADERLATFVVDSHVRSHPENDEDREGEELKNNGESAIEQGEDEINEQLNARQRRLQRQRKKEEEISPIPQELLMKYIHYARTKIYPKLHQMDMDKVSRVYADLRRESISTGSFPITVRHLESILRIAESFAKMRLSEFVSSYDLDRAIKVVVDSFVDAQKVSVRRQLRRSFAIYTLGH
B2: Mcm5 (subunit of the MCM complex) (natural protein)
chain: MSFDRPEIYSAPVLQGESPNDDDNTEIIKSFKNFILEFRLDSQFIYRDQLRNNILVKNYSLTVNMEHLIGYNEDIYKKLSDEPSDIIPLFETAITQVAKRISILSRAQSANNNDKDPENTSMDTDSLLLNSLPTFQLILNSNANQIPLRDLDSEHVSKIVRLSGIIISTSVLSSRATYLSIMCRNCRHTTSITINNFNSITGNTVSLPRSCLSTIESESSMANESNIGDESTKKNCGPDPYIIIHESSKFIDQQFLKLQEIPELVPVGEMPRNLTMTCDRYLTNKVIPGTRVTIVGIYSIYNSKNGAGSGRSGGGNGGSGVAIRTPYIKILGIQSDVETSSIWNSVTMFTEEEEEEFLQLSRNPKLYEILTNSIAPSIFGNEDIKKAIVCLLMGGSKKILPDGMRLRGDINVLLLGDPGTAKSQLLKFVEKVSPIAVYTSGKGSSAAGLTASVQRDPMTREFYLEGGAMVLADGGVVCIDEFDKMRDEDRVAIHEAMEQQTISIAKAGITTVLNSRTSVLAAANPIYGRYDDLKSPGDNIDFQTTILSRFDMIFIVKDDHNEERDISIANHVINIHTGNANAMQNQQEENGSEISIEKMKRYITYCRLKCAPRLSPQAAEKLSSNFVTIRKQLLINELESTERSSIPITIRQLEAIIRITESLAKLELSPIAQERHVDEAIRLFQASTMDAASQDPIGGLNQASGTSLSEIRRFEQELKRRLPIGWSTSYQTLRREFVDTHRFSQLALDKALYALEKHETIQLRHQGQNIYRSGV
B3: Mcm7 (subunit of the MCM complex) (natural protein)
chain: MSAALPSIQLPVDYNNLFNEITDFLVTFKQDTLSSDATRNENEDENLDAENIEQHLLEKGPKYMAMLQKVANRELNSVIIDLDDILQYQNEKFLQGTQADDLVSAIQQNANHFTELFCRAIDNNMPLPTKEIDYKDDVLDVILNQRRLRNERMLSDRTNEIRSENLMDTTMDPPSSMNDALREVVEDETELFPPNLTRRYFLYFKPLSQNCARRYRKKAISSKPLSVRQIKGDFLGQLITVRGIITRVSDVKPAVEVIAYTCDQCGYEVFQEVNSRTFTPLSECTSEECSQNQTKGQLFMSTRASKFSAFQECKIQELSQQVPVGHIPRSLNIHVNGTLVRSLSPGDIVDVTGIFLPAPYTGFKALKAGLLTETYLEAQFVRQHKKKFASFSLTSDVEERVMELITSGDVYNRLAKSIAPEIYGNLDVKKALLLLLVGGVDKRVGDGMKIRGDINVCLMGDPGVAKSQLLKAICKISPRGVYTTGKGSSGVGLTAAVMKDPVTDEMILEGGALVLADNGICCIDEFDKMDESDRTAIHEVMEQQTISISKAGINTTLNARTSILAAANPLYGRYNPRLSPLDNINLPAALLSRFDILFLMLDIPSRDDDEKLAEHVTYVHMHNKQPDLDFTPVEPSKMREYIAYAKTKRPVMSEAVNDYVVQAYIRLRQDSKREMDSKFSFGQATPRTLLGIIRLSQALAKLRLADMVDIDDVEEALRLVRVSKESLYQETNKSKEDESPTTKIFTIIKKMLQETGKNTLSYENIVKTVRLRGFTMLQLSNCIQEYSYLNVWHLINEGNTLKFVDDGTMDTDQEDSLVSTPKLAPQTTASANVSAQDSDIDLQDA
B4: CBP-Mcm3 (subunit of the MCM complex) (natural protein)
chain: MEGSTGFDGDATTFFAPDAVFGDRVRRFQEFLDTFTSYRDSVRSIQVYNSNNAANYNDDQDDADERDLLGDDDGDDLEKEKKAASSTSLNILPHRIIISLDDLREFDRSFWSGILVEPAYFIPPAEKALTDLADSMDDVPHPNASAVSSRHPWKLSFKGSFGAHALSPRTLTAQHLNKLVSVEGIVTKTSLVRPKLIRSVHYAAKTGRFHYRDYTDATTTLTTRIPTPAIYPTEDTEGNKLTTEYGYSTFIDHQRITVQEMPEMAPAGQLPRSIDVILDDDLVDKTKPGDRVNVVGVFKSLGAGGMNQSNSNTLIGFKTLILGNTVYPLHARSTGVAARQMLTDFDIRNINKLSKKKDIFDILSQSLAPSIYGHDHIKKAILLMLMGGVEKNLENGSHLRGDINILMVGDPSTAKSQLLRFVLNTASLAIATTGRGSSGVGLTAAVTTDRETGERRLEAGAMVLADRGVVCIDEFDKMTDVDRVAIHEVMEQQTVTIAKAGIHTTLNARCSVIAAANPVFGQYDVNRDPHQNIALPDSLLSRFDLLFVVTDDINEIRDRSISEHVLRTHRYLPPGYLEGEPVRERLNLSLAVGEDADINPEEHSNSGAGVENEGEDDEDHVFEKFNPLLQAGAKLAKNKGNYNGTEIPKLVTIPFLRKYVQYAKERVIPQLTQEAINVIVKNYTDLRNDDNTKKSPITARTLETLIRLATAHAKVRLSKTVNKVDAKVAANLLRFALLGEDIGNDIDEEESEYEEALSKRSPQKSPKKRQRVRQPASNSGSPIKSTPRRSTASSVNATPSSARRILRFQDDEQNAGEDDNDIMSPLPADEEAELQRRLQLGLRVSPRRREHLHAPEEGSSGPLTEVGTPRLPNVSSAGQDDEQQQSVISFDNVEPGTISTGRLSLISGIIARLMQTEIFEEESYPVASLFERINEELPEEEKFSAQEYLAGLKIMSDRNNLMVADDKVWRV
B5: Mcm4 (subunit of the MCM complex) (natural protein)
chain: MSQQSSSPTKEDNNSSSPVVPNPDSVPPQLSSPALFYSSSSSQGDIYGRNNSQNLSQGEGNIRAAIGSSPLNFPSSSQRQNSDVFQSQGRQGRIRSSASASGRSRYHSDLRSDRALPTSSSSLGRNGQNRVHMRRNDIHTSDLSSPRRIVDFDTRSGVNTLDTSSSSAPPSEASEPLRIIWGTNVSIQECTTNFRNFLMSFKYKFRKILDEREEFINNTTDEELYYIKQLNEMRELGTSNLNLDARNLLAYKQTEDLYHQLLNYPQEVISIMDQTIKDCMVSLIVDNNLDYDLDEIETKFYKVRPYNVGSCKGMRELNPNDIDKLINLKGLVLRSTPVIPDMKVAFFKCNVCDHTMAVEIDRGVIQEPARCERIDCNEPNSMSLIHNRCSFADKQVIKLQETPDFVPDGQTPHSISLCVYDELVDSCRAGDRIEVTGTFRSIPIRANSRQRVLKSLYKTYVDVVHVKKVSDKRLDVDTSTIEQELMQNKVDHNEVEEVRQITDQDLAKIREVAAREDLYSLLARSIAPSIYELEDVKKGILLQLFGGTNKTFTKGGRYRGDINILLCGDPSTSKSQILQYVHKITPRGVYTSGKGSSAVGLTAYITRDVDTKQLVLESGALVLSDGGVCCIDEFDKMSDSTRSVLHEVMEQQTISIAKAGIITTLNARSSILASANPIGSRYNPNLPVTENIDLPPPLLSRFDLVYLVLDKVDEKNDRELAKHLTNLYLEDKPEHISQDDVLPVEFLTMYISYAKEHIHPIITEAAKTELVRAYVGMRKMGDDSRSDEKRITATTRQLESMIRLAEAHAKMKLKNVVELEDVQEAVRLIRSAIKDYATDPKTGKIDMNLVQTGKSVIQRKLQEDLSREIMNVLKDQASDSMSFNELIKQINEHSQDRVESSDIQEALSRLQQEDKVIVLGEGVRRSVRLNNRV

What was measured:
Test in all cases: SEC
[1] = target: B4
[2] = target: B3
[3] = target: Mcm6 (subunit of the MCM complex) (S. cerevisiae, UniProt P53091 1-1017)
Sequence of Mcm6 (subunit of the MCM complex) (P53091 whole entry, one chain of several): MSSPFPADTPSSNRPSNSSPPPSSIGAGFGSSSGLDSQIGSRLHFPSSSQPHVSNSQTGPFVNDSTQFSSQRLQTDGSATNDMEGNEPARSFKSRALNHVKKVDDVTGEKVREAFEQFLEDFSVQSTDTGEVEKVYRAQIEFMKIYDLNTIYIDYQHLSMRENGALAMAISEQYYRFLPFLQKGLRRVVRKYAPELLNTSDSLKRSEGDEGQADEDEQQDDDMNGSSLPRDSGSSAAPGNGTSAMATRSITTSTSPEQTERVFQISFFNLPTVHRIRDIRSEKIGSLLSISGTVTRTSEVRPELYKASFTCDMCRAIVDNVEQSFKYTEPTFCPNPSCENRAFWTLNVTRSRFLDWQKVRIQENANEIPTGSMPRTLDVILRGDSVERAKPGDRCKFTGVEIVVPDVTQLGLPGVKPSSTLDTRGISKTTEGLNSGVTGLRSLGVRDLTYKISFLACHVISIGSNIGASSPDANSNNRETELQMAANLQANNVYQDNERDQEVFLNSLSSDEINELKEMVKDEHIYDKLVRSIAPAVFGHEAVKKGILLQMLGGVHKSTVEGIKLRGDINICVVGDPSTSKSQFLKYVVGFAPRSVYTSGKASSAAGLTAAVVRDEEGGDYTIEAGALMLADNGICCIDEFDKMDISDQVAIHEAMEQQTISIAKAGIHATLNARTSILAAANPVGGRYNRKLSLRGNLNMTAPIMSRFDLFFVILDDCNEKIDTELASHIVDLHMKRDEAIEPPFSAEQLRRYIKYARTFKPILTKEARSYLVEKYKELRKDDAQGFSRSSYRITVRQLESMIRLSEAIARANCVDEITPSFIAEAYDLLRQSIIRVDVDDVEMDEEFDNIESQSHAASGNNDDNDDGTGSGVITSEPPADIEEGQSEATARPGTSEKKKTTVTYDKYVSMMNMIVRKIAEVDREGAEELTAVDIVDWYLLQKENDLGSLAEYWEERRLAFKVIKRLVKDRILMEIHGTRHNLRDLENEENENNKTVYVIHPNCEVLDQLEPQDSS

Binder	binding result [1]	also measured
B1	binds	–
B2	–	binding result [2]: binds
B3	binds	–
B4	–	binding result [3]: binds
B5	binds	–
